Measured values from patent publication US20220251215A1 (Regeneron, published 2022).

Tests used:
[1] = biological target: T1, monomeric HLA-A2:NY-ESO-1(156-165) (V at position 165) peptide complex, 2906; assay: SPR, 37 C, antibody captured, monomeric complex injected
T1 construct: also called soluble HLA-A2:NY-ESO-1 peptide complex

[2] = biological target: HLA-A2 on T2 cells pulsed with EARS2: 306-314 peptide (human); assay: flow cytometry, 10 ug/ml, pulsed T2 cells
[3] = biological target: HLA-A2 on T2 cells pulsed with URB1: 1853-1861 peptide (human); assay: flow cytometry, 10 ug/ml, pulsed T2 cells
[4] = biological target: HLA-A2 on T2 cells pulsed with FBXL22: 4-12 peptide (human); assay: flow cytometry, 10 ug/ml, pulsed T2 cells
[5] = biological target: HLA-A2 on T2 cells pulsed with GRID1: 7-15 peptide (human); assay: flow cytometry, 10 ug/ml, pulsed T2 cells
[6] = biological target: HLA-A2 on T2 cells pulsed with MAGEH1: 90-98 peptide (human); assay: flow cytometry, 10 ug/ml, pulsed T2 cells
[7] = biological target: HLA-A2 on T2 cells pulsed with ITCH (807-815) peptide (human); assay: flow cytometry, 10 ug/ml, pulsed T2 cells
[8] = biological target: HLA-A2 on T2 cells pulsed with BCL9L: 1351-1359 peptide (human); assay: flow cytometry, 10 ug/ml, pulsed T2 cells
[9] = biological target: T2, HLA-A2 on T2 cells pulsed with NY-ESO-1:157-165, wt peptide (C165) (human); assay: flow cytometry, 10 ug/ml, pulsed T2 cells
T2 construct: also called T2 Pulsed NY-ESO-1_157-165

[10] = biological target: HLA-A2 on T2 cells pulsed with ZDHHC1 (376-384) peptide (human); assay: flow cytometry, 10 ug/ml, pulsed T2 cells
[11] = biological target: T1, monomeric HLA-A2:NY-ESO-1(156-165) (V …); assay: SPR, 25 C, antibody captured, monomeric complex injected;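 note: antibody held on sensor chip via immobilized anti-human or anti-mouse Fc antibody, rate constants derived by fitting sensorgrams to a 1:1 binding model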
[12] = biological target: T2, HLA-A2 on T2 cells pulsed with …; assay: flow cytometry, peptide-pulsed T2 cells

- Kd [1]: 0.293 nM
- koff [1]: 0.000441 s⁻¹
- kon [1]: 1.5e+06 M⁻¹ s⁻¹
- t½ [1]: 26.2 min
- ratio of MFI, pulsed to unpulsed [2]: 0.6 ratio
- ratio of MFI, pulsed to unpulsed [3]: 0.6 ratio
- ratio of MFI, pulsed to unpulsed [4]: 1.3 ratio
- ratio of MFI, pulsed to unpulsed [5]: 1.6 ratio
- ratio of MFI, pulsed to unpulsed [6]: 0.5 ratio
- ratio of MFI, pulsed to unpulsed [7]: 1 ratio
- ratio of MFI, pulsed to unpulsed [8]: 3 ratio
- ratio of MFI, pulsed to unpulsed [9]: 138 ratio
- ratio of MFI, pulsed to unpulsed [10]: 1.6 ratio
- Kd [11]: 0.16 nM
- koff [11]: 0.000185 s⁻¹
- kon [11]: 1.16e+06 M⁻¹ s⁻¹
- t½ [11]: 62.5 min
- EC50 [12]: 0.32 nM
B1: mAb28128P (antibody, human IgG4 S228P, kappa, V domains shown)
VH: EVQLVESGGGVVQPGGSLRLSCAASGFIFDDYAMHWVRQVPGKGLEWISLSSGGGGGTYYADPVKGRFTISRDNSKNSLHLQMNSLRAEDTASYYCAKDMVFGVVTPDFFFAMDVWGQGTTVTVSS
VL: DIQMTQSPSSLSASVGDRVTITCRASQSISTYLNWYQQKPGKAPKLLIYGASSLQRGVPSRFSGSGSGTDFTLTISSLQPEDFATYYCQQTYSTPPITFGQGTRLEIKR
